The record followed here is the RNAGym collection of RNA variant scans (doi:10.7554/elife.80360).

First the molecules themselves.
B1: Hairpin Ribozyme (parent)
chain: GUCCUCUUUCACGUGCGCGUGAAAGAGAGAAGUGAACCAGAGAAACACACGUUGUGGUAUAUUACCUGGUA

Variants of B1 are the subject of this data set. Description: self-cleavage, relative activity (ratio to wild type); higher = more cleavage; co-transcriptional.
In the case of GUCCUCUUUCACGUGCGCGUGAAAGAGAGAAGUGUACCAGAGAAACACACAUUGUGGUAUAUUACCUGGUA [A35U G51A], the self-cleavage amounted to 0.965.

As for GUCCUCUUUCACGUGCGCGUGAAAGAGAGAAGUGUACCAGAGAAACACACGUUGUGGUAUAUUACCUUGUA [A35U G68U], the self-cleavage was found to be 0.177.

Consider GUCCUCUUUCACGUGCGCGUGAAAGAGAGAAGUGUACCAGAGAAACACACGUUGUGGUAUAUUACCUCGUA [A35U G68C], for which the self-cleavage is 0.206.

As to GUCCUCUUUCACGUGCGCGUGAAAGAGAGAAGUGUACCAGAGAAACACACGUUGAGGUAUAUUACCUGGUA [A35U U55A], the self-cleavage came to 0.129.

Take GUCCUCUUUCACGUGCGCGUGAAAGAGAGAAGUGACCCAGAGAAACACACGUUGUGGCAUAUUACCUGGUA [A36C U58C]: the self-cleavage was 0.685.

Consider GUCCUCUUUCACGUGCGCGUGAAAGAGAGAAGUGACCCAGAGAAACACACGUUGUGGAAUAUUACCUGGUA [A36C U58A], for which the self-cleavage was determined as 0.391.

With GUCCUCUUUCACGUGCGCGUGAAAGAGAGAAGUGUACCAGAGAAACACACGUUGUGGUCUAUUACCUGGUA [A35U A59C], the self-cleavage was determined as 0.302.

In the case of GUCCUCUUUCACGUGCGCGUGAAAGAGAGAAGUGUACCAGAGAAACACACGUUGUGGUAUAAUACCUGGUA [A35U U62A], the self-cleavage was 0.158.

Turning to GUCCUCUUUCACGUGCGCGUGAAAGAGAGAAGUGACCCAGAGAGACACACGUUGUGGUAUAUUACCUGGUA [A36C A44G], the self-cleavage was found to be 0.157.

Consider GUCCUCUUUCACGUGCGCGUGAAAGAGAGAAGUGACCCAGAGACACACACGUUGUGGUAUAUUACCUGGUA [A36C A44C], for which the self-cleavage came to 0.122.

Turning to GUCCUCUUUCACGUGCGCGUGAAAGAGAGAAGUGACCCAGAGAUACACACGUUGUGGUAUAUUACCUGGUA [A36C A44U], the self-cleavage was 0.307.

As to GUCCUCUUUCACGUGCGCGUGAAAGAGAGAAGUGACCCAGAGAAACACACCUUGUGGUAUAUUACCUGGUA [A36C G51C], the self-cleavage was determined as 0.562.

GUCCUCUUUCACGUGCGCGUGAAAGAGAGAAGUGACCCAGAGAAACACUCGUUGUGGUAUAUUACCUGGUA [A36C A49U]: the self-cleavage is 0.203.

With GUCCUCUUUCACGUGCGCGUGAAAGAGAGAAGUGACCCAGAGAAACACACGUGGUGGUAUAUUACCUGGUA [A36C U53G], the self-cleavage is 0.371.

Regarding GUCCUCUUUCACGUGCGCGUGAAAGAGAGAAGUGACCCAGAGAAACACACGUAGUGGUAUAUUACCUGGUA [A36C U53A], the self-cleavage was 0.635.

Take GUCCUCUUUCACGUGCGCGUGAAAGAGAGAAGUGACCCAGAGAAACACACGUUGGGGUAUAUUACCUGGUA [A36C U55G]: the self-cleavage was 0.174.

For the variant GUCCUCUUUCACGUGCGCGUGAAAGAGAGAAGUGACCCAGAGAAACACACGUUGAGGUAUAUUACCUGGUA [A36C U55A], the self-cleavage was 0.243.

With GUCCUCUUUCACGUGCGCGUGAAAGAGAGAAGUGACCCAGAGAAACACACGUUGUGGUCUAUUACCUGGUA [A36C A59C], the self-cleavage turned out to be 0.0815.

Turning to GUCCUCUUUCACGUGCGCGUGAAAGAGAGAAGUGUUCCAGAGAAACACACGUUGUGGUAUAUUACCUGGUA [A35U A36U], the self-cleavage stood at 0.524.

Take GUCCUCUUUCACGUGCGCGUGAAAGAGAGAAGUGUACCAGAGCAACACACGUUGUGGUAUAUUACCUGGUA [A35U A43C]: the self-cleavage came to 0.0178.

Take GUCCUCUUUCACGUGCGCGUGAAAGAGAGAAGUGACCCAGAGAAACACACGUUGUGGUAUAAUACCUGGUA [A36C U62A]: the self-cleavage turned out to be 0.0722.

Turning to GUCCUCUUUCACGUGCGCGUGAAAGAGAGAAGUGUACCAGAGAAACACACGUUGUGAUAUAUUACCUGGUA [A35U G57A], the self-cleavage turned out to be 0.193.

Turning to GUCCUCUUUCACGUGCGCGUGAAAGAGAGAAGUGUACCAGAGAAACACACGUUGUGGUAUCUUACCUGGUA [A35U A61C], the self-cleavage stood at 0.265.

As to GUCCUCUUUCACGUGCGCGUGAAAGAGAGAAGUGACCCAGAGAAACACAUGUUGUGGUAUAUUACCUGGUA [A36C C50U], the self-cleavage worked out at 0.222.

Consider GUCCUCUUUCACGUGCGCGUGAAAGAGAGAAGUGACCCAGAGAAACACACGUUGUGGUAUAUUACCUGCUA [A36C G69C], for which the self-cleavage is 0.304.

In the case of GUCCUCUUUCACGUGCGCGUGAAAGAGAGAAGUGUACCAGAUAAACACACGUUGUGGUAUAUUACCUGGUA [A35U G42U], the self-cleavage amounted to 0.109.

As to GUCCUCUUUCACGUGCGCGUGAAAGAGAGAAGUGACCCAGAGAAACACACGUUGUGGUAUAUUACCUAGUA [A36C G68A], the self-cleavage came out at 0.193.

Consider GUCCUCUUUCACGUGCGCGUGAAAGAGAGAAGUGACCCAGAGAAACACACGUUGUGGUAUAUUACCUCGUA [A36C G68C], for which the self-cleavage was found to be 0.153.

In the case of GUCCUCUUUCACGUGCGCGUGAAAGAGAGAAGUGACCCAGAGAAACACACGUUGUGGUAUAUUACCUUGUA [A36C G68U], the self-cleavage was 0.213.

With GUCCUCUUUCACGUGCGCGUGAAAGAGAGAAGUGACCCAGAGAAACACACGUUGUGGUAUAUUAGCUGGUA [A36C C65G], the self-cleavage stood at 0.3.

On to GUCCUCUUUCACGUGCGCGUGAAAGAGAGAAGUGAGCCAGAGUAACACACGUUGUGGUAUAUUACCUGGUA [A36G A43U], for which the self-cleavage was found to be 0.0504.

On to GUCCUCUUUCACGUGCGCGUGAAAGAGAGAAGUGAGCCAGAGCAACACACGUUGUGGUAUAUUACCUGGUA [A36G A43C], for which the self-cleavage came to 0.228.

For the variant GUCCUCUUUCACGUGCGCGUGAAAGAGAGAAGUGUACCAGAGAAACACACGUUGUGGCAUAUUACCUGGUA [A35U U58C], the self-cleavage was 0.798.

Turning to GUCCUCUUUCACGUGCGCGUGAAAGAGAGAAGUGUACCAGAGAAACACACGUUGUGGGAUAUUACCUGGUA [A35U U58G], the self-cleavage was determined as 0.553.

For GUCCUCUUUCACGUGCGCGUGAAAGAGAGAAGUGUACCAGAGAAACACACGUUGUGGUAUAUUCCCUGGUA [A35U A64C], the self-cleavage amounted to 0.143.

Regarding GUCCUCUUUCACGUGCGCGUGAAAGAGAGAAGUGUAACAGAGAAACACACGUUGUGGUAUAUUACCUGGUA [A35U C37A], the self-cleavage was 0.406.

As for GUCCUCUUUCACGUGCGCGUGAAAGAGAGAAGUGUAUCAGAGAAACACACGUUGUGGUAUAUUACCUGGUA [A35U C37U], the self-cleavage is 0.457.

For the variant GUCCUCUUUCACGUGCGCGUGAAAGAGAGAAGUGUACCAGAGAAACACACGUUGUCGUAUAUUACCUGGUA [A35U G56C], the self-cleavage was determined as 0.124.
